# Test results published in patent US20210238276A1 (INTEGRAL MOLECULAR, published 2021).
# Where a chain is given by its changes, count along the chain named.
# T1: hsGLUT4 R265A (human, UniProt P14672 1-509)
# T1 sequence: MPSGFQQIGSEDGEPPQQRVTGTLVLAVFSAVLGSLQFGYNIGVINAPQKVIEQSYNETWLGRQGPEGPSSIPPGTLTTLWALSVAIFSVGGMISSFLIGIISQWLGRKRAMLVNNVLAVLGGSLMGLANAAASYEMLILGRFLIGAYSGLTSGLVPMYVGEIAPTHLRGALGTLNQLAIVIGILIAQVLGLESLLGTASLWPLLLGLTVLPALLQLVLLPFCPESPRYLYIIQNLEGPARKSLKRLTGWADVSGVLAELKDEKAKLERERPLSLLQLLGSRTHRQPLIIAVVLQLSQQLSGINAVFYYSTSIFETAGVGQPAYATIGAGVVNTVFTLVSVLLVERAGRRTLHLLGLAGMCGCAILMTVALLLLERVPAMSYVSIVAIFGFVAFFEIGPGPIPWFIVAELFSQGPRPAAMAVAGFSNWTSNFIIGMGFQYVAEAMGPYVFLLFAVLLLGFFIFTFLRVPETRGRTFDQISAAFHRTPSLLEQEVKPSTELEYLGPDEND
# T2: hsGLUT4 M158A (human, UniProt P14672 1-509)
# T2 sequence: T1 sequence with M158A, A265R
# T3: hsGLUT4 L296A (human, UniProt P14672 1-509)
# T3 sequence: T1 sequence with A265R, L296A
# T4: hsGLUT4 Q295A (human, UniProt P14672 1-509)
# T4 sequence: T1 sequence with A265R, Q295A
# B1: AB102 (Fc fusion)
# scFv: ALTQPSSVSANLGGTVKITCSGGGSYGYGWYQQKSPGSAPVTVIYSNDQRPSDIPSRFSGSKSGSTATLTITGVRAEDEAIYYCGSTDSDYVGIFGAGTTLTVLGQSSRSSGGGGSSGGGGSAVTLDESGGGLQTPGGTLSLVCKASGFDFSSYATIWVRQAPGKGLEWVAGISGTGTGSSTGYAPAVKGRATISRDNGQSTVRLQLNNLRAEDTGSYFCAKSTGYGDSWIYPDSIDAWGHGTEVIVSS
# notes: also called MAb AB102; not shown: Fc fragment of human IgG1, cloned in frame with the scFv
# How the values were obtained:
# Assay in all cases: flow cytometry, alanine-scan library in HEK-293T, with cytochalasin B
# hsGLUT4 R265A = biological target: T1, hsGLUT4 R265A
# Procedure: (§1) Because of the state-dependence of the isolated MAbs, we next wished to understand the mechanism by which each MAb could recognize GLUT4 in its different conformations. The residues required for binding of each MAb were determined using shotgun mutagenesis comprehensive alanine scanning (Davidson E & Doranz B J (2014) A High-Throughput Shotgun Mutagenesis Approach to Mapping B-cell Antibody Epitopes. Immunology, which is hereby incorporated by reference in its entirety). All residues of hsGLUT4 were individually mutated to alanine, with existing alanines changed to serines. Mutations were obtained for 508 of the 509 residues of GLUT4 (excluding the initiating methionine). The entire mutation library was transfected into human HEK-293T cells in a 384-well array format (one clone per well) and assessed for immunoreactivity using high-throughput flow cytometry.
# (§2) HEK-293T cells were transfected by CaPO₄ with plasmids in 6-well culture plates (Falcon) at 750,000 cells/well. At 48 hours post transfection, cells were stained with anti-V5 and anti-GLUT4 MAbs (purified scFv, 2 μg/ml) followed by biotinylated goat anti-mouse or human antibody (1:500) and streptavidin-PerCP (1:500). Fluorescence was detected using an Intellicyt high-throughput flow cytometer (HTFC; Intellicyt, Albuquerque, N. Mex.). For cell permeabilization, cells were treated with saponin at 0.1% in PBS for 20 minutes. To discriminate intact (live) and permeabilized (dead) cells without the use of detergent, propidium iodide (PI) was added to HEK-293T cells at 1 ug/ml just prior to flow cytometry. Where indicated, cytochalasin B (Sigma) was used at a final concentration of 10 uM and phloretin (Sigma) was used at a final concentration of 100 uM, each added in 10% NGS for 30 minutes prior to antibody staining as well as included with the primary antibody.
# hsGLUT4 M158A = biological target: T2, hsGLUT4 M158A
# Procedure: as §1, §2
# hsGLUT4 L296A = biological target: T3, hsGLUT4 L296A
# Procedure: as §1, §2
# hsGLUT4 Q295A = biological target: T4, hsGLUT4 Q295A
# Procedure: as §1, §2
binder,measurement,setting,value
B1,% of binding to wild type GLUT4,hsGLUT4 R265A,-5%
same,% of binding to wild type GLUT4,hsGLUT4 M158A,85%
same,% of binding to wild type GLUT4,hsGLUT4 L296A,69%
same,% of binding to wild type GLUT4,hsGLUT4 Q295A,89%
